In this assay the target is T1, IL8.
T1 construct: interleukin 8 (CXCL8), ligand of CXCR2
Kind of assay: MST; 5 nM NT647-labelled receptor-Fc against a gradient of ligand; 1x PBS, 10 mM DTT, arginine at different concentrations; Monolith NT.115 pico, 25°C; data from the early T-Jump period; Kd model (law of mass action). The following applies: both partners purified.

B1: CXCR2^QTY–Fc (Fc fusion)
chain: MEDFNMESDSFEDFWKGEDLSNYSYSSTLPPFLLDAAPCEPESLEINKYYTTTTYAQTYQQSQQGNSQTMQTTQYSRVGRSVTDTYQQNQAQADQQYAQTQPTWAASKVNGWIFGTFLCKTTSQQKETNYYSGTQQQACTSTDRYLAIVHATRTLTQKRYLVKYTCQSTWGQSQQQAQPTQQYRRTVYSSNVSPACYEDMGNNTANWRMQQRTQPQSYGYTTPQQTMQYCYGFTLRTLFKAHMGQKHRAMRTTYATTQTYQQCWQPYNQTQQADTLMRTQVIQETCERRNHIDRAQDATETQGTQHSCQNPQTYAFIGQKFRHGLLKILAIHGLISKDSLPKDSRPSFVGSSSGHTSTTL
modifications: NT647 fluorescent dye (Monolith NT protein labelling kit RED-NHS)
B1 gave a Kd of 60.3 ± 21 nM.

Usually Kd stands for the concentration at which binding is half-saturated. A lower Kd goes with a tighter complex.
